Test results from paper PMC6104087, “Structural basis for membrane tethering by a bacterial dynamin-like pair” (Nature Communications, 2018).

B3: Cj-DLP1 (natural protein, Campylobacter jejuni, UniProt A0A0H3PJL7 1-728, looked up)
chain: MKELFQKIWQNELQFLNFDAKFQDKSKLDTAECAIILSVNKDNYERYFLLKEFQELCKKIDLRVDIFSMQNAQICILNLFKSGFISKQDLLKALKILEKISKNTEIFDFILQEKVQSIDQKALFQNDFKELNTINLELQKLSFDENLKSRLQKTLEKFQNLEFNIAITGVMNAGKSSLLNALLKEDFLGVSNIPETANLTVLSYGKSEEAKIYFWDKKEWQNILESSHFNADLKEFIDKLDKSVNIEDFIKDKPLIQNIALCELKNFSSAKNKISALIKKIEIKSHLEFLKNNISIVDTPGLDDVVVQREIVTNEYLRESDFLIHLMNASQSLTQKDADFLVHCLLNSRLSKFLIVLTKADLLSKKDLEEVIVYTKESLKSRLVDLDENLVEKIDFLCVSAKMASDFYKGLASKESLQKSGMQEFENYLFNELYAGEKSKIALRAYKKELHLELKNILSEYEMQNRLIKENKQGVSEENQKLLLELQKQNTLLKEAQDEISNSIAKLKNIDSGIDNLVLLLAKKLKERLIDEFKYLKNNAQKLNLSRILNIVDITTKDGINDILREIKFENIKKIEELKTNLSLKYDFLKDDFDNGFEGFKDGISKNIDSIFQSEKFALLRLKIEKLSNLKSDLYELETNLDTVIFDTFKEFKMSEILNSLNINGAFFEFLNDKLKHYEKNQKSKLESLEKVLQSLKNQDANILNSFEENLEKIEKLKQLEMGLLNAD
notes: Cj-DLP1, dynamin-like protein of Campylobacter jejuni, gene cj0411, full-length protein, 84.5 kDa; Monomer alone; Two copies stand in the 2:2 tetramer with Cj-DLP2; also called cj0411; CJ0411; source: E. coli BL21 (DE3), purified (HisTrap, gel filtration)
B4: Cj-DLP2 (natural protein, Campylobacter jejuni)
chain: MQINLLNDFIKAYENTYSVSFDDSFKGRIQELCKELNEPFMHASYALENELKELVFSLDKNVNIAIIGQFSSGKSSLLNLILGRDCLPTGVVPVTFKPTFLRYAKEYFLRVEFEDGSDIITNIEKLAFYTDQRNEVKQAKSLHIFAPIPLLEKITLVDTPGLNANENDTLTTLDELKNIHGAIWLSLIDNAGKKSEEDAIKANLELLGENSICVLNQKDKLSAEELDNVLNYAKSVFLKYFNELIAISCKEAKDEQSYEKSNFQSLLDFLTQLDTTVLKEKFVKRKILNLCEILEDENQLFVGIFDRLLNQFQSYEKHLLLAYENFLKEIEILNHQILEQLKSISERISSEIFASVKEKDAYFYKESKGFLKKDLYTRYDYKAPYISSDDAFLAMFYNSDVMSKEFKKIKNELYKSFEEIKMKLKDFINILEREILLFKAEFSNIQKDHIFQSDKNFSELRAFCNASDEYFLKDFKELLFKSILELDLFFEKLNLKAFTNYENATKLSLAFFSRKINESRVLYELDSSEFVLFYPKKSEIYERVLNELNVYEFETLLINKPILTKIAKNFLEQSQNLIQEKNKFLDLKKAELQKRRAQILNVRESIKED
notes: Cj-DLP2, dynamin-like protein of Campylobacter jejuni, gene cj0412, 71.2 kDa; Monomer alone; Two copies stand in the 2:2 tetramer with Cj-DLP1; also called cj0412; CJ0412; source: E. coli BL21 (DE3), purified (amylose resin, TEV cleavage, gel filtration); not shown: MBP, N-terminal, cleaved

What was measured:
Details in all cases: both partners purified
[1] = biological target: B3; assay: SEC-MALS; the two proteins mixed; 100 μl at 1–2 mg/ml on Superdex 200 10/300 GL in TEN 7.5 (20 mM Tris pH 7.5, 1 mM EDTA, 1 mM sodium azide), 1 mM DTT
[2] = biological target: B4; assay: as above
[3] = biological target: B3; assay: crystal structure; Cj-DLP1/2 tetramer, apo (3.7 Å) and with GDP·AlF4¯ (3.9 Å), space group P2(1)2(1)2(1); sitting drop, 0.7–1.0 M succinate pH 7.0, 20 °C

B1: Cj-DLP2_(∆trunk-tip) (natural protein)
chain: MQINLLNDFIKAYENTYSVSFDDSFKGRIQELCKELNEPFMHASYALENELKELVFSLDKNVNIAIIGQFSSGKSSLLNLILGRDCLPTGVVPVTFKPTFLRYAKEYFLRVEFEDGSDIITNIEKLAFYTDQRNEVKQAKSLHIFAPIPLLEKITLVDTPGLNANENDTLTTLDELKNIHGAIWLSLIDNAGKKSEEDAIKANLELLGENSICVLNQKDKLSAEELDNVLNYAKSVFLKYFNELIAISCKEAKDEQSYEKSNFQSLLDFLTQLDTTVLKEKFVKRKILNLCEILEDENQLFVGIFDRLLNQFQSYEKHLLLAYENFLKEIEILNHQILEQLKSISERMSKEFKKIKNELYKSFEEIKMKLKDFINILEREILLFKAEFSNIQKDHIFQSDKNFSELRAFCNASDEYFLKDFKELLFKSILELDLFFEKLNLKAFTNYENATKLSRVLNELNVYEFETLLINKPILTKIAKNFLEQSQNLIQEKNKFLDLKKAELQKRRAQILNVRESIKED
notes: Cj-DLP2 of Campylobacter jejuni (cj0412) with amino acids 348-401 and 509-542 within the trunk tip removed; also called Cj-DLP2 with the trunk tip removed; source: E. coli BL21 (DE3), expressed and purified as for native; not shown: MBP, N-terminal, cleaved
B1: binds [1].

B2: Cj-DLP1_(∆trunk) (natural protein)
chain: MKELFQKIWQNELQFLNFDAKFQDKSKLDTAECAIILSVNKDNYERYFLLKEFQELCKKIDLRVDIFSMQNAQICILNLFKSGFISKQDLLKALKILEKISKNTEIFDFILQEKVQSIDQKALFQNDFKELNTINLELQKLSFDENLKSRLQKTLEKFQNLEFNIAITGVMNAGKSSLLNALLKEDFLGVSNIPETANLTVLSYGKSEEAKIYFWDKKEWQNILESSHFNADLKEFIDKLDKSVNIEDFIKDKPLIQNIALCELKNFSSAKNKISALIKKIEIKSHLEFLKNNISIVDTPGLDDVVVQREIVTNEYLRESDFLIHLMNASQSLTQKDADFLVHCLLNSRLSKFLIVLTKADLLSKKDLEEVIVYTKESLKSRLVDLDENLVEKIDFLCVSAKMASDFYKGLASKESLQKSGMQEFENYLFNELYAGEKSKIALRAYKKELHLELKNILSEYEMQNRLIKLKNQDANILNSFEENLEKIEKLKQLEMGLLNAD
notes: Cj-DLP1 of Campylobacter jejuni (cj0411) with amino acids 470-695 (trunk) deleted; also called Cj-DLP1 with the trunk removed; source: E. coli BL21 (DE3), expressed and purified as for native
B2: binds [2].

For B3, the “stoichiometry N” value [2] was 1 Cj-DLP1 per Cj-DLP2 (2:2 tetramer).

B4: binds [3].
